Assay results from article PMC8233511.
Like-named read-outs stand apart in the source and are kept apart here.

Key:
Test in all cases: EMSA
[1] = target: Oct4 POU domain;Sox17 HMG domain (mouse?;mouse?, UniProt P20263;Q61473 131-282;68-136, |)
[2] = target: T1, Oct4 POU domain homodimer (UniProt P20263 131-282)
[3] = target: Oct4 POU domain;Sox2 HMG domain (mouse?;mouse?, UniProt P20263;P48432 131-282;43-111, |)
Oct4 POU domain = Oct4 POU domain (UniProt P20263 131-282)
[4] = target: T1, Oct4 POU domain homodimer; remark: listed apart in the source

T1 sequence (P20263 131-282): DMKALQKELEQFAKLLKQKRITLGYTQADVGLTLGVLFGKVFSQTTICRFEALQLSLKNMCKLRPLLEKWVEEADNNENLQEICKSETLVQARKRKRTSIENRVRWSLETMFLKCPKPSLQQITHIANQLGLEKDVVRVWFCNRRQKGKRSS
Chain of Oct4 POU domain (P20263 131-282): as above
Chain of Oct4 POU domain;Sox17 HMG domain (P20263 131-282, chain 1 of 2): as the sequence (P20263 131-282) above
Chain of Oct4 POU domain;Sox17 HMG domain (Q61473 68-136, chain 2 of 2): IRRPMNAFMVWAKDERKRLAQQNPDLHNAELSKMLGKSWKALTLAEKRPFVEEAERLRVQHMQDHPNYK
Chain of Oct4 POU domain;Sox2 HMG domain (P20263 131-282, chain 1 of 2): as the sequence (P20263 131-282) above
Chain of Oct4 POU domain;Sox2 HMG domain (P48432 43-111, chain 2 of 2): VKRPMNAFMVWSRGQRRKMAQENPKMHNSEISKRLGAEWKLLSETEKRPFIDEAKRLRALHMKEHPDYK

B1: SoxOct compressed (dsDNA)
DNA 1: GGCGGCATTGTATGCAAATCGGCGG
DNA 2: CCGCCGATTTGCATACAATGCCGCC
Does B1 bind [1]?
Result: binds

B2: MOREC4 (dsDNA)
DNA 1: GGCCTCATGCATATGCATGCGGCGG
DNA 2: CCGCCGCATGCATATGCATGAGGCC
Does B2 bind [2]?
Result: binds

B3: MOREA4+1 (dsDNA)
DNA 1: GCCGCCATGAATAATTCATGCCGCCG
DNA 2: CGGCGGCATGAATTATTCATGGCGGC
Does B3 bind [2]?
Result: binds

B4: SoxOct canonical (dsDNA)
DNA 1: GCGGCATTGTCATGCAAATCGGCGG
DNA 2: CCGCCGATTTGCATGACAATGCCGC
Does B4 bind [3]?
Result: binds

B5: Octamer (dsDNA)
DNA 1: GGCGGCGGATGCAAATCGGCGGCGG
DNA 2: CCGCCGCCGATTTGCATCCGCCGCC
Does B5 bind (Oct4 POU domain)?
Result: binds

B6: PORE (dsDNA)
DNA 1: GGATCCATTTGCCTTTCAAATGTGG
DNA 2: CCACATTTGAAAGGCAAATGGATCC
Does B6 bind [4]?
Result: binds

B7: MOREA4 (dsDNA)
DNA 1: GCCGCCATGAATATTCATGCCGCCGC
DNA 2: GCGGCGGCATGAATATTCATGGCGGC
Does B7 bind [2]?
Result: binds
